Test results as given in patent US10100114B2, “Antibodies specific for TROP-2 and their uses” (RINAT NEUROSCIENCE CORP., priority 2011, dated 2018).

Columns and labels:
[1] = test system: human Trop-2 domains swapped with Trop-1 (EpCAM) or mouse Trop-2 equivalent regions; experiment: Domain mapping by domain swapping (Biacore); format: binding; conditions: for Binding to Trop-2 domain hybrid, domain 1: domain 1 replaced; for Binding to Trop-2 domain hybrid, domain 2: domain 2 replaced; for Binding to Trop-2 domain hybrid, domain 3: domain 3 replaced; for Binding to Trop-2 domain hybrid, domain 4: domain 4 replaced
Procedure: Domain mapping was done by swapping the Trop-2 extracellular domains with either Trop-1 (EpCAM) or mouse Trop-2 equivalent regions. […] These hybrid proteins were expressed as human Fc fusion proteins in 293F cells. Binding of anti-Trop-2 antibodies to these domain hybrids were determined by Biacore. […] Table 5. Definition of different domains of Trop-2 can be found, e.g., in Chong et al., J. Biol. Chem. 276(8):5804-13, 2001.

mouse Trop-2 = molecular target: T1, mouse Trop-2 (Mus musculus, UniProt Q8BGV3); experiment: Binding to mouse Trop-2; conditions: recombinant mouse IgG2a
T1 sequence (Q8BGV3 25-317): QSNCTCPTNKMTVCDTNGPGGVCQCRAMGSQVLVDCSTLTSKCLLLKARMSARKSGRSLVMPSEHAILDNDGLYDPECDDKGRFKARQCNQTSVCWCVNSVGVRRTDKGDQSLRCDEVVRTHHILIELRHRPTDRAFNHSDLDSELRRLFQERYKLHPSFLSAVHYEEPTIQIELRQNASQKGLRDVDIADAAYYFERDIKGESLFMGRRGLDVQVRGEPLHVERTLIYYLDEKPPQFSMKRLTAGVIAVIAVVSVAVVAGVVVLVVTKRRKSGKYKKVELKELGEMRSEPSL

human Trop-1 = molecular target: T2, human Trop-1 (Homo sapiens, UniProt P16422, M115T); experiment: Binding to human Trop-1; conditions: recombinant mouse IgG2a
T2 sequence (P16422 24-314 M115T): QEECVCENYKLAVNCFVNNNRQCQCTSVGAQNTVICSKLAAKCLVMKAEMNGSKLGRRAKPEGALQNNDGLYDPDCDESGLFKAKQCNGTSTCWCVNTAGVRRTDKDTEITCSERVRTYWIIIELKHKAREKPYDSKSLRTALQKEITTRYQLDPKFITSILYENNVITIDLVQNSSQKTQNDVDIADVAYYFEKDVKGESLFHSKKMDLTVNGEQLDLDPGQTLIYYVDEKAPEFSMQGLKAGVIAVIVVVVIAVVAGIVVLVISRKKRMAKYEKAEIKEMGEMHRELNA

huTrop-2 = molecular target: T3, huTrop-2 (Homo sapiens, UniProt P09758); experiment: Biacore SPR affinity of anti-Trop-2 mouse antibodies; format: binding; conditions: mouse IgG captured by anti-mouse IgG; monomeric Trop-2 extracellular domain as analyte
T3 construct: Monomeric Trop-2 extracellular domain prepared from papain digestion of Trop-2-Fc fusion protein; Fc (cleaved yes); made in house
T3 sequence (P09758 27-274 limits assumed): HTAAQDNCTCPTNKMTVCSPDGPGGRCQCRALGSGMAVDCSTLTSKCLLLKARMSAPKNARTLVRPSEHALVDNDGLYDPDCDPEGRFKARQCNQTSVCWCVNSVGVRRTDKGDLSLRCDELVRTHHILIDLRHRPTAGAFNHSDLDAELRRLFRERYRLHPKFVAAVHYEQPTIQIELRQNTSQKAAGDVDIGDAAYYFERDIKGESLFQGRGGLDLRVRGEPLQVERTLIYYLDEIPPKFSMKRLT
Procedure: The affinities of anti-Trop-2 mouse antibodies generated from hybridomas were measured on a surface plasmon resonance Biacore™ 2000 or 3000 biosensor equipped with a research-grade CM5 sensor chip (Biacore™ AB, Uppsala, Sweden—now GE Healthcare). Anti-mouse IgG was first amine coupled to the CM5 sensor surface. Various anti-Trop-2 mouse IgGs were then captured by anti-mouse IgG. Monomeric Trop-2 extracellular domain prepared from papain digestion of Trop-2-Fc fusion protein was then injected as the analyte at 3 fold dilution series. […]

A431 xenograft = experiment: In vivo efficacy of anti-Trop-2 mouse IgGs, A431 xenograft model; set-up: species or system nu/nu mice; conditions: 20 mg/kg once a week, 3 doses
Procedure: In vivo efficacy studies of anti-Trop-2 mouse IgGs were performed with target-expressing A431 xenograft model. Two million A431 epidermoid cancer cells were implanted subcutaneously into 5-8 weeks old nu/nu mice until the tumor sizes reached around 100 mm^3. Animals were randomized by tumor sizes and dosing was done through bolus tail vein injection. Anti-Trop-2 antibodies were expressed as recombinant mouse IgG2a antibodies from 293F transient expression. […] Tumor volume was measured twice a week by a caliper device and calculated with the following formula: Tumor volume=(length×width^2)/2. Studies were terminated before tumor volumes reached 2000 mm^3. TGI (% tumor growth inhibition) was determined as [1-tumor sizes (treatment group)/tumor size (control group)]×100.

SW620 (Trop-2 −) cells = experiment: Flow cytometry binding, SW620 cells; format: cell-based; conditions: Table 11, 300,000 cells, 1 ug antibody
Procedure: For A431 cell staining, 200,000 cells were incubated with 0.5 ug antibody in 100 uL binding buffer (PBS (Phosphate Buffered Saline)+0.5% BSA (Bovine Serum Albumin)), followed by incubation with Dylight488-conjugated goat anti-human (Fab′)2-specific secondary antibody from Jackson immunoresearch Laboratories (West Grove, Pa.). For Colo205 and SW620 cells, 300,000 cells were used with 1 ug of primary antibody, followed by AlexaFluor 647 anti-human (Fab′)2-specific secondary antibody from Jackson immunoresearch Laboratories (West Grove, Pa.).
Similar to Example 7a), binding of chimeric mouse and humanized anti-Trop-2 6G11 antibodies (expressed in human IgG1 subtype) were assessed on Trop-2 expressing (A431 and Colo205) and non-expressing (SW620) cells by flow cytometry. 300,000 cells were used with 1 ug of primary antibody, followed by AlexaFluor 647 anti-human (Fab′)2-specific secondary antibody.

B1: 6G11: anti-Trop-2 mouse antibody, VL SEQ ID NO: 8, VH SEQ ID NO: 9; also used as chimeric human IgG1 (antibody, V domains shown)
VH: QVQLQQPGAELVRPGASVKLSCKASGYTFTSYWINWVKQRPGHGLEWIGNIYPSDSYSNYNQKFKDKATLTVDKSSSTAYMQVSSPTSEDSAVYYCTYGSSFDYWGQGTTVTVSS
VL: DILLTQSPAILSVSPGERVSFSCRASQTIGTSIHWYQQRTNGSPRLLIKYASESISGIPSRFSGSGSGTDFTLSINSVESEDIADYYCQQSNSWPFTFGSGTKLEIK
In the case of B1, the “human Trop-2 domains bound” value ([1]; defined by loss or reduction in binding on domain swapping) is reported as “domain 1”, the “Binding to Trop-2 domain hybrid, domain 1” value ([1]; domain replacement hTrop1) is reported as “+” and the “Binding to Trop-2 domain hybrid, domain 2” value ([1]; domain replacement hTrop1) is reported as “−”. The “Binding to Trop-2 domain hybrid, domain 3” value ([1]; domain replacement hTrop1) was “−”, the “Binding to Trop-2 domain hybrid, domain 4” value ([1]; domain replacement hTrop1) was “−” and the “Binding to Trop-2 domain hybrid, domain 1” value ([1]; domain replacement mTrop-2) was “+”. The “Binding to Trop-2 domain hybrid, domain 2” value ([1]; domain replacement mTrop-2) was “−”, the “Binding to Trop-2 domain hybrid, domain 3” value ([1]; domain replacement mTrop-2) was “−” and the “Binding to Trop-2 domain hybrid, domain 4” value ([1]; domain replacement mTrop-2) was “−”. The “binding to mouse Trop-2” value (mouse Trop-2) was “do not bind”, the “binding to human Trop-1” value (human Trop-1) was “do not bind” and the “ka” value (huTrop-2) was 270000 M⁻¹ s⁻¹. The “kd” value (huTrop-2) was 0.0086 s⁻¹, the “A431 xenograft tumor growth in vivo” value (A431 xenograft) was “inhibit A431 xenograft tumor growth” and the “Mean tumor volume (mm3) on day 27” value (A431 xenograft; Table 7C) was 444.8 mm3. For the same molecule, the “TGI (Tumor growth inhibition)” value (A431 xenograft; Table 7C) was 57%, the “% positive” value (SW620 (Trop-2 −) cells) was 2.5% and the MFI (SW620 (Trop-2 −) cells) was 134.
